Tests used:
EYFP (Aequorea victoria) = assay: AUC; sedimentation velocity, 0.5 mg/mL of the isolated fluorescent protein, 25 mM phosphate buffer pH 6.2 or 7.4, 150 mM NaCl, 1% glycerol, 1 mM MgCl2, 0.5 mM beta-mercaptoethanol (legend also: 50 mM KCl), 42,000 rpm, 20 °C, interference detection, c(s) fit with Sedfit
EGFP (Aequorea victoria) = assay: as above

stoichiometry N (EYFP (Aequorea victoria))	stoichiometry N (EGFP (Aequorea victoria))	Substance
2	–	EYFP
–	2	EGFP

Reference: article PMC12796366
